Results on 11 molecules are retold here after patent publication US20260042862A1 (AGENCY FOR SCIENCE TECHNOLOGY AND RESEARCH, published 2026).

The target of assay [1] is T1, recombinant human GPC-3 protein (human, UniProt P51654 25-559, limits assumed).
T1 construct: also called glypican-3; recombinant GPC-3 protein
The assay is described as follows: binding ELISA with biotin-hGPC-3, EC50 calculated from the curves of FIG. 1A to 1C.

Assay [2] addresses T1, recombinant human GPC-3 protein. The assay is described as follows: SPR, Biacore T200. As to the method:
Affinity of 24 anti-GPC-3 IgG₁ antibodies was measured via Surface Plasmon Resonance (SPR) analysis using Biacore™ T200 system and shown in Table E3 (below).
On the technique in general: In SPR one partner is held on a chip, and binding of the other changes the refractive index at the surface.

The target of assay [3] is T2, human CD3 on human T cells (human, UniProt P07766 23-207).
T2 construct: whole, on cells; CD3 is a complex of several chains on T cells; also called CD3^Positive human T cells
In words: flow cytometry on human T cells (CD3 Positive), % positive cells. As to the method: (§1) The ability of these anti-GPC-3 bi-specific T cell-engaging antibodies to specifically recognize and bind to both GPC-3 and human CD3 molecules on cell surface was measured using HepG2 (GPC-3^Positive), SK-Hep1 (GPC-3^Negative), and human T cells (CD3^Positive) cells.
(§2) Briefly, HepG2 (GPC-3^Positive), SK-Hep1 (GPC-3^Negative) and human T cells (CD3^Positive) were seeded in cell suspension at 100000 per well in 96-well round-bottom plate prior to incubation with different concentrations of anti-GPC-3 bi-specific T cell-engaging antibodies. Binding was measured by flow cytometry using a secondary labelled antibody. In this assay, all 5 anti-GPC-3 bi-specific T-cell engaging antibodies bound strongly to the GPC-3 expressing cell HepG2 (FIG. 8B) as well as human T cells expressing CD3 (FIG. 8D).

Assay [4] deals with T3, human GPC-3 on the surface of HepG2 and Hep3B cells (human, UniProt P51654 25-554).
T3 construct: whole, on cells; Endogenous GPC-3 of human hepatoma cell lines; also called GPC-3 expressing HepG2 cells; GPC-3^High HepG2
The assay is described as follows: flow cytometry on HepG2 (GPC-3 Positive) cells, mean-APC. As to the method:
as §1, §2
On the technique in general: Flow cytometry measures light scatter and fluorescence of single cells or particles in a stream.

Assay [5] has as its target T3, human GPC-3 on the surface of HepG2 and …. The assay is described as follows: flow cytometry on HepG2 (GPC-3 Positive) cells, % positive cells. As to the method:
as §1, §2

Assay [6] concerns the target T1, recombinant human GPC-3 protein. The assay is described as follows: binding ELISA, absorbance 450nm-570nm against Biotin-hGPC-3 (nM), batch of FIG. 1A.
Assay [7] has the same target. In words: binding ELISA with biotin-hGPC-3, EC50 calculated from the curves of FIG. 1A to 1C; footnote: * Average value from 3 batches.
Assay [8] has as its target T3, human GPC-3 on the surface of HepG2 and …. The assay is described as follows: flow cytometry on HepG2 (GPC-3 High) cells, MFI against antibody (pM). As to the method: (§3) The ability of anti-GPC-3 antibodies to specifically recognize and bind GPC-3 on the surface of cells was measured using HepG2 (GPC-3^High), Hep3B (GPC-3^Medium) and SK-Hep1 (GPC-3^Negative) cells.
(§4) Briefly, HepG2 (GPC-3^High), Hep3B (GPC-3^Medium) and SK-Hep1 (GPC-3^Negative) cells were seeded in cell suspension at 50000 per well in 96-well round-bottom plate before incubation with different concentrations of anti-GPC-3 antibodies. Binding was measured by flow cytometry using a secondary labelled antibody.

For assay [9] the target is unchanged. The assay is described as above. This is another data set of the same source.
In assay [10] the target is T1, recombinant human GPC-3 protein. In words: binding ELISA, absorbance 450nm-570nm against Biotin-hGPC-3 (nM), batch of FIG. 1B.
Assay [11] shares this target. In words: binding ELISA, absorbance 450nm-570nm against Biotin-hGPC-3 (nM), batch of FIG. 1C.
In assay [12] the target is T3, human GPC-3 on the surface of HepG2 and …. In words: flow cytometry on Hep3B (GPC-3 Medium) cells, MFI against antibody (pM). As to the method: as §3, §4

B1: anti-GPC-3 IgG1 clone 1D3 (antibody, V domains shown)
VH: QVQLVQSGAEVKKPGASVKVSCKASGYTFTGYYMHWVRQAPGQGLEWMGWINPNSGGTNYAQNFQGRVTITRDTSASTAYMELSSLRSEDTAVYYCARGSWQTGSFDIWGQGTT
VL: SYELTQPPSVSGTPGQSVTISCSGSNSNLGSNYVYWYQVVPGTAPKLVIYRNKYRPPGVPDRFSGSKSGTSASLAISGLRSDDEAEYYCSGWDDSLSGRLFGGGTK
notes: Tested as IgG1; also called monoclonal antibody 1D3
With B1, the EC50 in assay [1] is 1.17 nM. In addition, in assay [2], the Kd was determined as 17.2 nM, the koff turned out to be 0.00293 s⁻¹ and the kon is 170000 M⁻¹ s⁻¹.

B2: anti-GPC-3 bi-specific T cell-engaging antibody clone 1C4 (bispecific antibody)
VH: QVQLVQSGGGLVKPGRSLRLSCTASGFTFGDYAMHWVRQAPGKGLEWVAVISYDGSNKYYADSVKGRFTISRDNSKNTLYLQMNSLRAEDTAVYYCARDYGDYYRPYGMDVWGQGTT
VL: DIQMTQSPSTLSASVGDRVTITCRASQSISKWLAWYQHKPGKAPKVLIYKASTLQSGVPSRFSGSGSGTEFTLTISSLQPEDFATYYCQQLNSYPLTFGGGTK
scFv: DVQLVQSGAEVKKPGASVKVSCKASGYTFTRYTMHWVRQAPGQGLEWIGYINPSRGYTNYADSVKGRFTITTDKSTSTAYMELSSLRSEDTATYYCARYYDDHYCLDYWGQGTTVTVSSGEGTSTGSGGSGGSGGADDIVLTQSPATLSLSPGERATLSCRASQSVSYMNWYQQKPGKAPKRWIYDTSKVASGVPARFSGSGSGTDYSLTINSLEAEDAATYYCQQWSSNPLTFGGGTKVEIK
notes: The Fab region of one arm of the IgG is replaced by the anti-CD3 scFv; knob-in-hole and LALA mutations in the Fc; also called 1C4 bi-specific
With B2, the “EC50 (read off the curve)” value in assay [3] is about 200 nM; in assay [4], about 700 nM; in assay [5], about 10 nM.

B3: anti-GPC-3 bi-specific T cell-engaging antibody clone 2B5 (bispecific antibody)
VH: QVQLQESGGGVVQPGRSLRLSCAASGFTFSSYAMHWVRQAPGKGLEWVAVISYDGSNKYYADSVKGRFTISRDNSKNTLYLQMNSLRAEDTAVYYCAKEGTYYYDSSGYWDYYYGMDVWGQGTT
VL: DVVMTQSPLSLPVTPGEPASISCRSSQSLLDSDGYNFLDWYVQKPGQSPQRLIYLGSIRASGVPDRFSGSGSGTDFTLKISRVEADDVGVYYCMQALQTPWTFGQGTK
scFv: B2 scFv
notes: The Fab region of one arm of the IgG is replaced by the anti-CD3 scFv; knob-in-hole and LALA mutations in the Fc; also called 2B5 bi-specific
For the molecule B3, the “EC50 (read off the curve)” value was about 400 nM in assay [3] and about 100 nM in assay [5].

B4: anti-GPC-3 bi-specific T cell-engaging antibody clone 4H1 (bispecific antibody)
VH: EVQLVQSGGGVVQPGRSLRLSCAASGFTFSSYAMHWVRQAPGKGLEWVAVISYDGSNKYYADSVKGRFTISRDNSKNTLYLQMNSLRAEDTAVYYCARAPGLEDYWGQGTL
VL: DIQMTQSPSSLSASVGDRVTITCRASQSISSYLNWYQQKPGTAPKLLIYAASSSLQSGVPSRFSGSGSGTDFALTISSLQPEDFATYYCLQDYNYPLTFGGGTK
scFv: B2 scFv
notes: The Fab region of one arm of the IgG is replaced by the anti-CD3 scFv; knob-in-hole and LALA mutations in the Fc; also called 4H1 bi-specific
On to B4, for which the “EC50 (read off the curve)” value is about 300 nM in [3] and about 100 nM in assay [5].

B5: anti-GPC-3 bi-specific T cell-engaging antibody clone 1D2 (bispecific antibody)
VH: EVQLVQSGAEVKKPGSSVKVSCKASGGTFSSYAISWVRQAPGQGLEWMGGIIPIFGTANYAQKFQGRVTITADKSTSTAYMELSSLRSEDTAVYYCAREWQQQLVPLGYMDVWGKGTT
VL: ETTLTQSPGTLSLSPGERATLSCRASHSVSSNFLAWYQQKPGQAPRLLIYAASSRTTGVPDRFSGSGSGTDFTLTISRLEPEDSAVYYCQQYGYSPLYTFGQGTK
scFv: B2 scFv
notes: The Fab region of one arm of the IgG is replaced by the anti-CD3 scFv; knob-in-hole and LALA mutations in the Fc; also called 1D2 bi-specific
Take B5: the “EC50 (read off the curve)” value in assay [3] is about 300 nM; in [5] it was about 70 nM.

B6: anti-GPC-3 bi-specific T cell-engaging antibody clone 5C4 (bispecific antibody)
VH: QVQLQESGGGLVKPGGSLRLSCAASGFTFSSYSMNWVRQAPGKGLEWVAVISYDGSNKYYADSVKGRFTISRDNSKNTLYLQMNSLRTEDTAVYYCARGAGPFTGFNWFDPWGQGTL
VL: EIVLTQSPATLSVSPGERATLSCRASQSVDSYLAWYQQKPGQAPRLLIYSASTRATGIPARFSGTGSGTEFTLTISSLQSEDFAVYYCQQYKRWPTWTFGLGTR
scFv: B2 scFv
notes: The Fab region of one arm of the IgG is replaced by the anti-CD3 scFv; knob-in-hole and LALA mutations in the Fc; also called 5C4 bi-specific
As to B6, the “EC50 (read off the curve)” value in assay [3] was about 100 nM; in [4], about 800 nM; in assay [5], about 20 nM.

B7: humanized GC33 IgG1 (antibody, V domains shown)
VH: QVQLVESGAEVKKPGASVKVSCKASGYTFTDYEMHWVRQAPGQGLEWMGALDPKTGDTAYSQKFKGRVTITADESTSTAYMELSSLRSEDTAVYYCARFYSYTYWGQGTLVTVSS
VL: DVVMTQSPLSLPVTPGEPASISCRSSQSLVHSNGNTYLHWYLQKPGQSPQLLIYKVSNRFSGVPDRFSGSGSGTDFTLKISRVEAEDVGVYYCSQNTHVPPTFGQGTKLEIK
Consider B7, for which the “EC50 (read off the curve)” value in [6] is about 0.4 nM; in assay [8], about 0.7 nM; in assay [9], about 0.8 nM; in [10], about 0.9 nM; in assay [11] it was about 1 nM. Further, the EC50 in assay [7] is 0.803 nM.

B8: anti-GPC-3 IgG1 clone 5C4 (antibody, V domains shown)
VH: B6 VH
VL: B6 VL
notes: Tested as IgG1; also called monoclonal antibody 5C4
Consider B8, for which the EC50 in assay [1] is 0.348 nM. For the same molecule, the “EC50 (read off the curve)” value in assay [8] is about 0.1 nM. The “EC50 (read off the curve)” value in assay [12] is about 0.04 nM. Also, in [2], the Kd was 9.02 nM, the koff worked out at 0.00161 s⁻¹ and the kon came to 179000 M⁻¹ s⁻¹.

B9: anti-GPC-3 IgG1 clone 1F1 (antibody, V domains shown)
VH: QVQLVQSGAEVKKPGASVKVSCKASGYTFTSYGISWVRQAPGQRLEWMGWINAGNGNTKYSQKFQGRVTITRDTSASTAYMELSSLRSEDTAVYYCATVVYWGQGTL
VL: EIVLTQSPLSLPVTPGEPASISCRSSQSLLHSNGYNYLDWYLQKPGQSPQILIYLGSHRASGVPDRFSGSASGTDFTLKISRVEAEDVGVYYCMQALQTPLTFGGGTK
notes: Tested as IgG1; also called monoclonal antibody 1F1
With B9, in [1], the half-maximal effective concentration (EC50) is 10.6 nM. In assay [2], the Kd is 13.8 nM, the koff is 0.00552 s⁻¹ and the kon turned out to be 399000 M⁻¹ s⁻¹.

B10: anti-GPC-3 IgG1 clone 1D2 (antibody, V domains shown)
VH: B5 VH
VL: B5 VL
notes: Tested as IgG1; also called monoclonal antibody 1D2
As for B10, the EC50 in assay [1] is 1.42 nM. Besides, in [2], the Kd came out at 4.18 nM, the off-rate (koff) was 0.00257 s⁻¹ and the kon is 615000 M⁻¹ s⁻¹.

B11: anti-GPC-3 IgG1 clone 1H1 (antibody, V domains shown)
VH: QVQLQESGAGLLRPSETLSLTCAVYGGSFSGYYWSWIRQPPGKGLEWLGEISHSGSTNYNPSLKSRVTISVDTSKNQFSLKLSSVTAADAAVYYCARWVWSGYYNGEGYFDLWGRGTL
VL: ETTLTQSPGTLSLSPGERATLSCRASQSVSSSYLAWYQQKPGQAPRLLIYGASSRATGIPDRFSGRGSGTDFTLTITRLEPEDFAVYYCQYYGSSPRTFGQGTK
notes: Tested as IgG1; also called monoclonal antibody 1H1
Consider B11, for which the EC50 in assay [1] is 5.42 nM. Besides, in assay [2], the Kd amounted to 33.9 nM, the koff was determined as 0.00596 s⁻¹ and the kon turned out to be 176000 M⁻¹ s⁻¹.

For orientation: EC50 means the midpoint of the concentration-response curve. For orientation: Kd means the concentration at which binding is half-saturated. The term koff denotes a measure of how fast the partners let go of each other. For orientation: kon means the second-order rate constant of association. Broadly, the EC50 (read off the curve) is the concentration needed to bring the measured effect to its halfway point.
